Measured values as given in US20220288204A1, “DOSAGE AND ADMINISTRATION OF ANTI-ERBB3 (HER3) MONOCLONAL ANTIBODIES TO TREAT TUMORS ASSOCIATED WITH NEUREGULIN 1 (NRG1) GENE FUSIONS” (ELEVATION ONCOLOGY, INC., priority 2021, published 2022).

Key:
HCC-95 cells = experiment: Time-course growth by cell counting; format: cell-based, human; conditions: lowest antibody concentration
Method: (§1) Expression of […] (FIG. 1A) or SLC3A2-NRG1 (FIG. 2B) fusions in MDA-MB-175-VII and LUAD-0061AS3 cells, respectively, was determined by RT-PCR. The HBECp53 (NRG1 fusion negative) and HBECp53-SLC3A2-NRG1 cells were used as negative and positive controls, respectively. […] Viability results represent the mean±SEM of 2-5 independent experiments in which each condition was assayed in triplicate determinations. Viability data were analyzed by nonlinear regression and the IC50 values for growth inhibition and the 95% confidence interval were determined with GraphPad Prism 8. […] Results represent the mean±SD for one experiment in which each condition was assayed in duplicate.
(§2) For the time-course experiments, cells were plated at a density of 5,000 (HCC-95) or 10,000 (all others) cells per well in 12-well tissue culture plates, and then treated 24 hours later (time 0) with the respective agents. […] Cells were trypsinized and counted at the relevant time-point shown on the graphs. For dose-response studies, cells were plated at a density of 7,500-10,000 cells in white clear-bottom 96-well plates in a volume of […] complete growth media and […] chemicals added at 10× concentration (to achieve 1× concentration) in a final volume of […]. After 96-hour incubation, […] AlamarBlue cell viability reagent was added to achieve a final concentration of 10%. AlamarBlue is a cell permeable […] dye that is reduced when it enters the mitochondria and emits fluorescence at a different wavelength (Gloeckner H, J. Immunol. Methods 2001; 252:131-8). Fluorescence was measured (excitation, 530 nm and emission, 585 nm) using a […] Spectramax M2 Fluorescence Plate Reader, as described previously (Somwar R, J. Biomol. Screen 2009; 14:1176-84). In each experiment, background fluorescence was determined in cells treated with […] of the 20S proteasome inhibitor, carfilzomib, which is toxic to most cells at high concentrations, and was subtracted from all values. There were 3-4 replicates of each condition. Relative IC50 values and 95% confidence interval values were determined by nonlinear regression analysis using GraphPad Prism 8 software using either a variable slope model or in cases where inhibition was only partial, a three-parameter fit was used. […] Each condition was assayed in triplicate in 2-5 independent experiments.
(§3) In these experiments, the MDA-MB-175 and LUAD-0061AS3 cell lines, isogenic HBECp53 cells ectopically expressing a CD74-NRG1 fusion, and the NRG1-amplified lung cancer cell line, HCC-95 (FIGS. 1E-H) were used. […] Afatinib sensitivity of HCC-95 cells was not examined in this study.

MDA-MB-175-VII cells = experiment: Time-course growth by cell counting; format: cell-based, human
Method: as §1, §2, §3

CH-17-0068 PDX tumors = experiment: Intrahepatic cholangiocarcinoma PDX model (RBPMS-NRG1); format: in vivo, mice; conditions: monotherapy seribantumab 5 mg and 10 mg per dose BIW vs afatinib 5 mg/kg QD
Method: Representative H&E-stained CH-17-0068 PDX tumor (FIG. 9A). Genomic alterations identified by RNAseq and corresponding investigational targeted therapies (FIG. 9B). […] Afatinib (5 mg/kg QD) or AG-120 (isocitrate dehydrogenase [IDH] inhibitor, 150 mg/kg twice daily [BID]) were then added to the indicated groups. Results represent the mean±SEM. Change in the volume of individual tumors on day 30 (FIG. 9D) or at the end of the study (FIG. 9E).
Models of isogenic pancreatic cancer cells with NRG1 fusions by lentiviral-mediated cDNA expression of ATP1B1-NRG1 and SLC3A2-NRG1 fusions in immortalized human pancreatic ductal cells (H6c7) were developed. […] Western blotting analysis was used to evaluate protein phosphorylation and expression. The presence of NRG1 fusions was confirmed by reverse transcription polymerase chain reaction (RT-PCR) and next-generation sequencing (NGS).

[1] = system: xenograft tumors generated from OVCAR8 cells; conditions: Sheng Q, et al., Cancer Cell 2010; cited from earlier work
[2] = system: EGFR, HER2, HER3, HER4, downstream signaling, apoptosis and cell-cycle proteins in MDA-MB-175-VII cells; experiment: Western blotting of protein phosphorylation and expression; format: cell-based, human
Method: Whole-cell extracts were prepared after all treatments and subjected to SDS-PAGE, followed by immunoblotting for the phosphorylated (p) or total (t) proteins shown in each panel. All Western blotting studies were conducted at least two times and representative immunoblots of phosphorylated (p) and total (t) proteins are shown.
These events likely culminate in inhibition of growth and impaired survival.
As observed with phosphor-ylation of some proteins, cyclin D1 level began to be restored by 12 hours (FIG. 4D).

B1: seribantumab: anti-ERBB3 (HER3) fully human monoclonal antibody; heavy and light chains SEQ ID NOs: 12 and 13 (antibody)
heavy: EVQLLESGGGLVQPGGSLRLSCAASGFTFSHYVMAWVRQAPGKGLEWVSSISSSGGWTLYADSVKGRFTISRDNSKNTLYLQMNSLRAEDTAVYYCTRGLKMATIFDYWGQGTLVTVSSASTKGPSVFPLAPCSRSTSESTAALGCLVKDYFPEPVTVSWNSGALTSGVHTFPAVLQSSGLYSLSSVVTVPSSNFGTQTYTCNVDHKPSNTKVDKTVERKCCVECPPCPAPPVAGPSVFLFPPKPKDTLMISRTPEVTCVVVDVSHEDPEVQFNWYVDGVEVHNAKTKPREEQFNSTFRVVSVLTVVHQDWLNGKEYKCKVSNKGLPAPIEKTISKTKGQPREPQVYTLPPSREEMTKNQVSLTCLVKGFYPSDIAVEWESNGQPENNYKTTPPMLDSDGSFFLYSKLTVDKSRWQQGNVFSCSVMHEALHNHYTQKSLSLSPGK
light: QSALTQPASVSGSPGQSITISCTGTSSDVGSYNVVSWYQQHPGKAPKLIIYEVSQRPSGVSNRFSGSKSGNTASLTISGLQTEDEADYYCCSYAGSSIFVIFGGGTKVTVLGQPKAAPSVTLFPPSSEELQANKATLVCLVSDFYPGAVTVAWKADGSPVKVGVETTKPSKQSNNKYAASSYLSLTPEQWKSHRSYSCRVTHEGSTVEKTVAPAECS
cell growth over time (HCC-95 cells): growth completely inhibited
time at which growth was slowed after start of treatment (MDA-MB-175-VII cells; seribantumab 0.1, 1, 10 μmol/L): 24 h
cell growth over time (MDA-MB-175-VII cells; seribantumab 1 and 10 μmol/L, 12 days): growth was blocked for the entire 12-day period
efficacy compared with afatinib (CH-17-0068 PDX tumors): equally effective as afatinib
growth of xenograft tumors [1]: block growth of xenograft tumors
phosphorylation of AKT over time ([2]; 2 mmol/L seribantumab, up to 24 hours): remained completely inhibited for the entire 24-hour treatment period
expression of proapoptotic proteins cleaved-PARP and PUMA ([2]; seribantumab, 6-24 hours): elevated
level of cyclin D1 ([2]; seribantumab, up to 24 hours): undetectable by 6 hours
time to full inhibition of phosphorylation of HER3, HER4, and downstream signaling ([2]; seribantumab, up to 24 hours): 30 min
phosphorylation of HER3, HER2, EGFR, and HER4 ([2]; serum-starved, 3 hours): fully inhibited
